Test results taken from PMC6406451.

Molecular target: human TRPM8 fused C-terminally to TEV-GFP-His8-tag (human), Q7Z2W7
Test: SDS-PAGE with in-gel GFP fluorescence; crude S. cerevisiae membranes separated by SDS-PAGE, GFP fluorescence of the fusion read in the gel
Conditions: remark: other sources report otherwise

- stoichiometry N: 2
B1: human TRPM8 fused C-terminally to TEV-GFP-His8-tag, Q7Z2W7 1-1104 (natural protein)
chain: MSFRAARLSMRNRRNDTLDSTRTLYSSASRSTDLSYSESDLVNFIQANFKKRECVFFTKDSKATENVCKCGYAQSQHMEGTQINQSEKWNYKKHTKEFPTDAFGDIQFETLGKKGKYIRLSCDTDAEILYELLTQHWHLKTPNLVISVTGGAKNFALKPRMRKIFSRLIYIAQSKGAWILTGGTHYGLMKYIGEVVRDNTISRSSEENIVAIGIAAWGMVSNRDTLIRNCDAEGYFLAQYLMDDFTRDPLYILDNNHTHLLLVDNGCHGHPTVEAKLRNQLEKYISERTIQDSNYGGKIPIVCFAQGGGKETLKAINTSIKNKIPCVVVEGSGQIADVIASLVEVEDALTSSAVKEKLVRFLPRTVSRLPEEETESWIKWLKEILECSHLLTVIKMEEAGDEIVSNAISYALYKAFSTSEQDKDNWNGQLKLLLEWNQLDLANDEIFTNDRRWESADLQEVMFTALIKDRPKFVRLFLENGLNLRKFLTHDVLTELFSNHFSTLVYRNLQIAKNSYNDALLTFVWKLVANFRRGFRKEDRNGRDEMDIELHDVSPITRHPLQALFIWAILQNKKELSKVIWEQTRGCTLAALGASKLLKTLAKVKNDINAAGESEELANEYETRAVELFTECYSSDEDLAEQLLVYSCEAWGGSNCLELAVEATDQHFIAQPGVQNFLSKQWYGEISRDTKNWKIILCLFIIPLVGCGFVSFRKKPVDKHKKLLWYYVAFFTSPFVVFSWNVVFYIAFLLLFAYVLLMDFHSVPHPPELVLYSLVFVLFCDEVRQWYVNGVNYFTDLWNVMDTLGLFYFIAGIVFRLHSSNKSSLYSGRVIFCLDYIIFTLRLIHIFTVSRNLGPKIIMLQRMLIDVFFFLFLFAVWMVAFGVARQGILRQNEQRWRWIFRSVIYEPYLAMFGQVPSDVDGTTYDFAHCTFTGNESKPLCVELDEHNLPRFPEWITIPLVCIYMLSTNILLVNLLVAMFGYTVGTVQENNDQVWKFQRYFLVQEYCSRLNIPFPFIVFAYFYMVVKKCFKCCCKEKNMESSVCCFKNEDNETLAWEGVMKENYLVKINTKANDTSEEMRHRFRQLDTKLNDLKGLLKEIANKIK
